From patent US20060127407A1 (IMMUNOGEN, published 2006)

How the values were obtained:
alphaVbeta3 integrin [1] = biological target: T1, alphaVbeta3 integrin (human, UniProt P06756 31-1048; P05106 27-788); test: ELISA on alphaVbeta3 protein, absorbance against concentration
T1 construct: Purified integrin coated on plates; also called αvβ3; αVβ3

alphaVbeta3 integrin [2] = biological target: T1, alphaVbeta3 integrin; test: saturation binding curve, 125-I CNTO 95 on αvβ3 coated plates
Experimental: (§1) A375S2 and M21 cells express both αvβ₃ and αᵥβ₅, HT-29 cells express αvβ5. For comparison, other Mabs capable of binding integrins were used. The Kd was calculated from a saturation binding curve in each case using multiple replicates of multiple lots of antibody.

[3] = biological target: T2, alphaV subunit integrins on human tumor cells (HT29, A549, A2780) (human, UniProt P06756 31-1048); test: flow cytometry on A549 human lung carcinoma cells, FITC anti-human antibody
T2 construct: whole, on cells; the cell line of each number is named under assay; also called alphaV integrins on living cells
Experimental: (§2) Cells: HT29 human colon carcinoma and A549 human lung carcinoma cells were from ATCC and maintained in alphaMEM supplemented with 10% fetal bovine serum (FBS). A2780 human ovarian carcinoma cells were obtained from National Cancer Institute. A2780 cells were cultured in RPMI 1640 medium containing 10% FBS. […] Absence of primary antibody or substitution of primary antibody with isotype matched antibody served as negative controls. Cells were immediately analyzed with a FACS Scan II flow cytometer (Becton Dickinson, Mountain View, Calif.). Data was analyzed with GraphPad Prism software using non-liner regression to determine the concentration at 50% maximal binding (Table 7).

[4] = biological target: T2, alphaV subunit integrins on human tumor …; test: flow cytometry on HT29 human colon carcinoma cells, FITC anti-human antibody
Experimental: as §2

alphaVbeta3 integrin [5] = biological target: T1, alphaVbeta3 integrin; test: ELISA, purified antibody on alphaVbeta3
alphaVbeta5 integrin [6] = biological target: T3, alphaVbeta5 integrin (UniProt P06756 31-1048; P18084 24-799); test: ELISA on alphaVbeta5 protein, absorbance against concentration
T3 construct: Purified integrin coated on plates; also called αvβ5; alphaVbetaS protein

[7] = biological target: T2, alphaV subunit integrins on human tumor …; test: flow cytometry on A2780 human ovarian carcinoma cells, FITC anti-human antibody
Experimental: as §2

alphaVbeta5 integrin [8] = biological target: T3, alphaVbeta5 integrin; test: saturation binding curve, 125-I CNTO 95 on αvβ5 coated plates
Experimental: as §1

alphaVbeta3 integrin [9] = biological target: T1, alphaVbeta3 integrin; test: saturation binding curve on αvβ3 coated plates

T2 sequence (P06756 31-1048): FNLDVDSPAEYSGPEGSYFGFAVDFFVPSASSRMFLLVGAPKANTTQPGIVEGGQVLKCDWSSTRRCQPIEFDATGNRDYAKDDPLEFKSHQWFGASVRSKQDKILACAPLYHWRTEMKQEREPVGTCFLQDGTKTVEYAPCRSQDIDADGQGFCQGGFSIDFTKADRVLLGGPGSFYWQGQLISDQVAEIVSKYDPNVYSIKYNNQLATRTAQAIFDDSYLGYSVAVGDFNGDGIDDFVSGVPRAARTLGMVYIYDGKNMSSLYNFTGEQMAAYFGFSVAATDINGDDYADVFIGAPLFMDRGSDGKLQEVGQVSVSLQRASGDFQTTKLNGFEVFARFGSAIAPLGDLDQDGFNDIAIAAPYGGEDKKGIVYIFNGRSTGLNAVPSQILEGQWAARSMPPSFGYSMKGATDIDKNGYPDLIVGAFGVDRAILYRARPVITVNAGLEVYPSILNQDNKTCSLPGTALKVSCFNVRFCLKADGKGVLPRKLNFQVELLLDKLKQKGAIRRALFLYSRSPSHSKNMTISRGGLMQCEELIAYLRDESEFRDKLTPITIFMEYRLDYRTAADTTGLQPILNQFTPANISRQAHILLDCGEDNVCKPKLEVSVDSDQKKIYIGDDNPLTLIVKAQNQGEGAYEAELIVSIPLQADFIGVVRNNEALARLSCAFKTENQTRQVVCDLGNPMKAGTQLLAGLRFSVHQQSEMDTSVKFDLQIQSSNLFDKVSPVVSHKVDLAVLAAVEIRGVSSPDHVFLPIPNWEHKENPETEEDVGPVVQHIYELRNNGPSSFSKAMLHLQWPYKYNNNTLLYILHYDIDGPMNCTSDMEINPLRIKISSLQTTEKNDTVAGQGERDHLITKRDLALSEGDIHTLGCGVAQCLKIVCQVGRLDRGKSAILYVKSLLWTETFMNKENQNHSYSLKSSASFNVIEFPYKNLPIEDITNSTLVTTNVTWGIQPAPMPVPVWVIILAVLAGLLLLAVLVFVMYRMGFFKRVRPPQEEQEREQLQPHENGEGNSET
T3 sequence (P06756 31-1048, chain 1 of 2): as the sequence (P06756 31-1048) above
T3 sequence (P18084 24-799, chain 2 of 2): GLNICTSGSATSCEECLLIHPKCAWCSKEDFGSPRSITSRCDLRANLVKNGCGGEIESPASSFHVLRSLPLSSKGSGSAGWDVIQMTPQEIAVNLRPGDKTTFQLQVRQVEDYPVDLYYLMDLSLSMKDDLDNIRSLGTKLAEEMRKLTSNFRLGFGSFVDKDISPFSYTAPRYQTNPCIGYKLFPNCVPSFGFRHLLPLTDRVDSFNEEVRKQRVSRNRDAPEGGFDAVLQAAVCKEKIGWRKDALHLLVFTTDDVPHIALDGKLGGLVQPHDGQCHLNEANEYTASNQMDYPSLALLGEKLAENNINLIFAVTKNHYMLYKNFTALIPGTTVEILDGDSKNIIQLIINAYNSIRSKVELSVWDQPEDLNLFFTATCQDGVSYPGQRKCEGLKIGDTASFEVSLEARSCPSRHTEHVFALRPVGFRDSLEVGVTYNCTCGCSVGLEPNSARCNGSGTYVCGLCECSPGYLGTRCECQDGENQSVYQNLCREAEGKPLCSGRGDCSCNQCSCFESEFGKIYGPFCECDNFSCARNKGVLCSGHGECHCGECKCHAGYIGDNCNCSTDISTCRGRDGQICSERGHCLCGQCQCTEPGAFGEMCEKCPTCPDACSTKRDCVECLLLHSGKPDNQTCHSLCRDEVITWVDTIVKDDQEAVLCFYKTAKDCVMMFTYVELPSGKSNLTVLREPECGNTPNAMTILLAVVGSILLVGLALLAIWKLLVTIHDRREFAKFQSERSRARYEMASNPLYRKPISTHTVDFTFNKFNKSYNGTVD
T1 sequence (P06756 31-1048, chain 1 of 2): as the sequence (P06756 31-1048) above
T1 sequence (P05106 27-788, chain 2 of 2): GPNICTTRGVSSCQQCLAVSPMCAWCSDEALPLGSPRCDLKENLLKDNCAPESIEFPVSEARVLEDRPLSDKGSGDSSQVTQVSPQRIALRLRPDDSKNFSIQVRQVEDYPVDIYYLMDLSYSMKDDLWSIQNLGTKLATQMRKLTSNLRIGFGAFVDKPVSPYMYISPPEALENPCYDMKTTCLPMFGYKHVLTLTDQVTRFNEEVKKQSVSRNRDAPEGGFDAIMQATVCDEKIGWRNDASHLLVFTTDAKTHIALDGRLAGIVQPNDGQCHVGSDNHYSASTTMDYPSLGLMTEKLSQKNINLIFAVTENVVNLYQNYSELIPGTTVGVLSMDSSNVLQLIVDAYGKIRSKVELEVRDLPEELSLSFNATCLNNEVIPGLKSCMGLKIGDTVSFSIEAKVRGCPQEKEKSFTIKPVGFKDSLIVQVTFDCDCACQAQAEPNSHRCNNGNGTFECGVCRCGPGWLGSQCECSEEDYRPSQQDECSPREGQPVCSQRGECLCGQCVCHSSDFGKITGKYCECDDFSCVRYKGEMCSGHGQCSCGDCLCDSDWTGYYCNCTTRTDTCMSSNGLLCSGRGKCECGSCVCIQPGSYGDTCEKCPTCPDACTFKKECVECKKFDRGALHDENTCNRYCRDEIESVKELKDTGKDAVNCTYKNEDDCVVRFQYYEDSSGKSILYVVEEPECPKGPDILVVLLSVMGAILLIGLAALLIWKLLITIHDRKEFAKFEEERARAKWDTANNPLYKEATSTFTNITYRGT

Row | Binder | Kd (alphaVbeta3 integrin [1]) [nM] | Kd (alphaVbeta3 integrin [2]) [nM] | EC50 [3] [µg/mL] | EC50 [4] [µg/mL] | EC50 (alphaVbeta3 integrin [5]) [µg/mL] | Kd (alphaVbeta5 integrin [6]) [nM] | EC50 [7] [µg/mL] | Kd (alphaVbeta5 integrin [8]) [nM] | Kd (alphaVbeta3 integrin [9]) [nM]
1 | Monoclonal antibody CNTO 95 (antibody, IgG1, V domains shown, also called C371A; Mab CNTO 95) VH: QVQLVESGGGVVQPGRSRRLSCAASGFTFSRYTMHWVRQAPGKGLEWVAVISFDGSNKYYVDSVKGRFTISRDNSENTLYLQVNILRAEDTAVYYCAREARGSYAFDIWGQGTMVTVSS VL: EIVLTQSPATLSLSPGERATLSCRASQSVSSYLAWYQQKPGQAPRLLIYDASNRATGIPARFSGSGSGTDFTLTISSLEPEDFAVYYCQQRSNWPPFTFGPGTKVDIK | ~3 | 0.21 | 180 | 140 | 0.7 | 0.03 | 170 | 0.025 | 
2 | CNTO 364 (CNTO 95-SPP-DM1) (antibody, human IgG1, V domains shown, maytansinoid DM1 linked through SPP (disulfide) to amino acid side chains, positions not given, Antibody-drug conjugate of CNTO 95 (human IgG1 kappa); also called CNTO 95-DM1; the conjugate) VH: QVQLVESGGGVVQPGRSRRLSCAASGFTFSRYTMHWVRQAPGKGLEWVAVISFDGSNKYYVDSVKGRFTISRDNSENTLYLQVNILRAEDTAVYYCAREARGSYAFDIWGQGTMVTVSS VL: EIVLTQSPATLSLSPGERATLSCRASQSVSSYLAWYQQKPGQAPRLLIYDASNRATGIPARFSGSGSGTDFTLTISSLEPEDFAVYYCQQRSNWPPFTFGPGTKVDIK | ~3 |  | 270 | 190 |  | 0.035 | 270 |  | 
3 | abciximab (Fab, V domains shown) VH: EVQLQQSGTVLARPGASVKMSCEASGYTFTNYWMHWVKQRPGQGLEWIGAIYPGNSDTSYIQKFKGKAKLTAVTSTTSVYMELSSLTNEDSAVYYCTLYDGYYVFAYWGQGTLVTVSA VL: EIVLTQSPVTLSVTPGDSVSLSCRASRDISNNLHWFQQTSHESPRLLIKYASQSMSGIPSRFSGSGSGTDFTLSINSVETEDFGMYFCQQTNSWPYTFGGGTKLEIK |  |  |  |  |  |  |  |  | 0.25
